This is an account of results in US20150086562A1 (BIOATLA, published 2015).

First the molecules themselves.
T1: CD22 protein expressed on the surface of Daudi cells (human, UniProt P20273 20-847)
T1 sequence (looked up): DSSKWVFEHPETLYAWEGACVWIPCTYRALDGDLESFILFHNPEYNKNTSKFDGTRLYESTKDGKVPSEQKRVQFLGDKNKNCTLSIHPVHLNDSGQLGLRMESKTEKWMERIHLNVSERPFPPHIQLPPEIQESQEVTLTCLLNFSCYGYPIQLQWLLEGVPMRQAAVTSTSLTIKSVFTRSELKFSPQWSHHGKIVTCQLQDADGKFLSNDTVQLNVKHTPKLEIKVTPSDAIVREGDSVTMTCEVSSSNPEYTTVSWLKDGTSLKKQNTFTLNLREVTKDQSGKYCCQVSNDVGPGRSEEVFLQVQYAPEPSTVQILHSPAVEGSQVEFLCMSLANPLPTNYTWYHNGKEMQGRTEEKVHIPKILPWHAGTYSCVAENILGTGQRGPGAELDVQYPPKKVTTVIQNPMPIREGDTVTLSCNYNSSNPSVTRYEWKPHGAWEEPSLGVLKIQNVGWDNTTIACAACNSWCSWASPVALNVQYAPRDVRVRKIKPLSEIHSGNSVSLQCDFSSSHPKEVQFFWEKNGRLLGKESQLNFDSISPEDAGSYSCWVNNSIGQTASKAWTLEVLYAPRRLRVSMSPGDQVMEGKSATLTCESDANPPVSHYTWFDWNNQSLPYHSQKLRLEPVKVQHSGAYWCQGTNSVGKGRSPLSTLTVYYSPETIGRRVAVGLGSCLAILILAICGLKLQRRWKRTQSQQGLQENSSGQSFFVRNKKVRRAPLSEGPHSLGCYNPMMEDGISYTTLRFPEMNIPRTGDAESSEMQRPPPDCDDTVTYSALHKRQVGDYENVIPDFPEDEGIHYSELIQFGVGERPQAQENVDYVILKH

B1: VM1008 (antibody, V domains shown)
VH: QVQLVQSGAEVKKPGASVKVSCKASGYVFTSYWLHWVRQARGQRLEWIGYINPRNDYTEYNRIFKGRVTITADKSTSTAYMELSSLRSEDTAVYYCARRGITTFYWGQG
VL: DIQMTQSPSSLSASVGDRVTITCKSSQSVLYSAVEKNYLAWYQQKPGQAPRLLIYWASTRERGIPDRFSGSGSGTDFTLTISRLEPEDFAVYYCKQYLSSWTFGQG
notes: Humanized antibody with human constant region; also called Anti-CD22 Ab VM1008; anti-CD22 Mab clone VM1008
B2: VM1013 (antibody, V domains shown)
VH: QVQLQESGPGLVKPSQTLSLTCTVSGYVFTSYWLHWIRQPPGKGLEWIGYINPRNDYTEYNRIFKGRFTISRDNAKNSLYLQMNSLRAEDTAVYYCARRGITTFYWGQG
VL: B1 VL with D1A, M4L, I64V, D66S, R83S, E85Q, V91T
notes: Humanized antibody with human constant region; also called anti-CD22 Mab clone VM1013
B3: VM1009 (antibody, V domains shown)
VH: QVQLVQSGAEVKKPGASVKVSCKASGYVFTSYWLHWIRQSPSRGLEWLGYINPRNDYTEYNRIFKGRFVFSLDTSVSTAYLQICSLKAEDTAVYYCARRGITTFYWGQG
VL: EIVLTQSPATLSLSPGERATLSCKSSQSVLYSAVEKNYLAWYQQKPGKAPKLLIYWASTRERGVPSRFSGSGSGTDFTFTISSLEAEDAATYYCKQYLSSWTFGQG
notes: Humanized antibody with human constant region; also called anti-CD22 Mab clone VM1009
B4: VM1005 (antibody, V domains shown)
VH: B3 VH with Q1E, S17T, V20I, A24V
VL: B1 VL with D1A, M4L, I64V, D66S, R83S, E85Q, V91T
notes: Humanized antibody with human constant region; also called anti-CD22 Mab clone VM1005
B5: VM1010 (antibody, V domains shown)
VH: EVQLVQSGAEVKKPGESLRISCKVSGYVFTSYWLHWIRQSPSRGLEWLGYINPRNDYTEYNRIFKGRFTISRDNAKNSLYLQMNSLRAEDTAVYYCARRGITTFYWGQG
VL: B3 VL with E85Q, A86P, A89I
notes: Humanized antibody with human constant region; also called anti-CD22 Mab clone VM1010
B6: VM1012 (antibody, V domains shown)
VH: QVQLVQSGAEVKKPGASVKVSCKASGYVFTSYWLHWVRQAPGQGLEWMGYINPRNDYTEYNRIFKGRFTISRDNAKNSLYLQMNSLRAEDTAVYYCARRGITTFYWGQG
VL: B3 VL with L13V, K48Q, K51R, E85Q, A86P, A89I
notes: Humanized antibody with human constant region; also called anti-CD22 Mab clone VM1012

Residue numbers refer to the chain shown, from its start.

The first test concerns the target T1, CD22 protein expressed on the surface …. In words: cell-based or functional assay.
As for B1, the “Daudi Internalization by FACS, % Shift” value worked out at 69.4%.

As to B2, the “Daudi Internalization by FACS, % Shift” value amounted to 88.8%.

In the case of B3, the “Daudi Internalization by FACS, % Shift” value was 69.4%.

Regarding B4, the “Daudi Internalization by FACS, % Shift” value is 86.4%.

Take B5: the “Daudi Internalization by FACS, % Shift” value came out at 65.7%.

For the molecule B6, the “Daudi Internalization by FACS, % Shift” value is 87.5%.

The target in another test is T2, recombinant CD22 extracellular domain.
T2 construct: Kept apart from m18, which is cell-surface CD22; also called CD22 (analyte in the BIAcore runs); CD22 ECD
In words: ELISA on plates coated with recombinant CD22 extracellular domain (coating 2, 0.2, 0.02 or 0.002 ug/ml per paragraph 227; the sheet does not say which), anti-human IgG-HRP, read at 450 nm. On the procedure:
Nunc-Immuno MaxiSorp 96 well plates were coated with 100 μl of 2 μg/ml, 0.2 μg/ml, 0.02 μg/ml or 0.002 μg/ml recombinant CD22 extracellular domain (PeproTech, Inc. catalog number 100-01 in coating solution (sodium bicarbonate in PBS). The plates were covered with plate sealer and incubated at 4° C. overnight. Plates were emptied and the residual liquid tapped out on paper towels. 200 μl washing solution (0.05% Tween-20 in PBS) was added and shaken at 200 RPM for 5 min at room temperature. The plates were emptied and residual liquid tapped out on paper towels. 200 μl blocking solution (2% Carnation milk in PBS) was added and shaken at 200 RPM for one hour at room temperature. Plates were emptied and residual liquid tapped out on paper towels. 100 μl of diluted samples containing VM1000, VM1001, VM1002, VM1003, VM1004, VM1005, VM1006, VM1007, VM1008, VM1009, VM1010, VM1011, VM1012, VM1013, VM1014, and VM1015 antibodies for ELISA were used. The samples were shaken at 200 RPM for one hour at room temperature; plates emptied and residual liquid tapped out on paper towels. 200 μl washing solution (0.05% Tween-20 in PBS) was added, shaken at 200 RPM for 5 min at room temperature; plates emptied and residual liquid tapped out on paper towels. This process was repeated three times. 100 μl of 1:2500 dilution of anti-human IgG conjugated with HRP diluted in block solution (2% Carnation milk in PBS) was added for all samples. 100 μl of 1:2500 dilution of anti-rabbit IgG conjugated with HRP diluted in block solution (2% Carnation milk in PBS) was added for control antibody. The contents were shaken at 200 RPM for one hour at room temperature, plates emptied and residue liquid tapped out on paper towels. 200 μl washing solution (0.05% Tween-20 in PBS) was added, shaken at 200 RPM for 5 min at room temperature; plates emptied and residual liquid tapped out on paper towels. This process was repeated three times. 100 μl TMB substrate solution was added, and incubated at room temperature. The reaction was stopped with 1 N HCl, and the plate read at 450 nm to determine relative binding affinity (FIG. 17).
For orientation: An ELISA detects its analyte on a solid surface through an enzyme-linked reagent.
With B1, the “ELISA OD 450” value turned out to be 0.67.

B3: the “ELISA OD 450” value was determined as 0.597.

Take B4: the “ELISA OD 450” value was 0.372.

B5: the “ELISA OD 450” value stood at 0.7.

Another test has as its target T1, CD22 protein expressed on the surface …. The experiment in a line: confocal immunofluorescence, FITC-labelled antibody on Daudi cells. On the procedure:
Selected antiCD22 selected anti-CD22 Mab clones VM1000, VM1001, VM1002, VM1003, VM1004, VM1005, VM1006, VM1007, VM1008, VM1009, VM1010, VM1011, VM1012, VM1013, VM1014, and VM1015 of the invention were directly conjugated to F1TC using the Zenon labeling complex (Molecular Probes) using the manufacturer's recommended procedures. Approximately 1×10e7 Daudi cells were resuspended in PBS containing 5 ug/ml labeled anti-CD22 antibody and incubated for 45 minutes on ice. Cells then washed twice in PBS-FBS solution at 0 C. Cells were then incubated in RPMI 1640 media containing 10% FBS for varying periods at 37 C, harvested and washed in PBS at 0 C. The cells were then briefly fixed in 4% paraformaldehyde solution for 5 min at room temperature, then washed in PBS containing 0.05% Triton X-100. Cell pellets were collected by centrifugation and resupended in a minimal volume of FBS neat, and then applied to glass microscope slides. Prior to analysis, slides were treated with mounting fluid containing the nuclear stain DAPI, then coverslips were applied. Confocal images were recorded using an ACAS Ultima confocal microscope (Meridian Instruments, Inc., Okemos, Mich.) and represent 1-μm sections through the center of a focal plane using a 100× oil immersion objective.
The Anti-CD22 monoclonal antibodies selected clones VM1000, VM1001, VM1002, VM1003, VM1004, VM1005, VM1006, VM1007, VM1008, VM1009, VM1010, VM1011, VM1012, VM1013, VM1014, and VM1015 of the invention were analysed for their ability to be rapidly internalized into the intracellular compartment as judged by immunoflourescent signal on the cell surface versus the intracellular endo cytotic compartment. The antibodies of the invention were compared to BA006H, and humanized version of the murine monoclonal antibody LL2. In this example, FIG. 21A, the anti-CD22 antibodies of the invention bind to CD22 protein expressed on the surface of Daudi cells by approximately 20-fold compared to BA006H as judged by relative mean fluorescence (RMF), and are virtually completely internalized within the cell with 90 minutes, localizing predominantly to within the perinuclear golgi apparatus and associated lysozomes. Shown in FIG. 21B is a chart of the RMF surface binding values obtained in this manner for individual anti-CD22 antibodies of the invention.
For B1, the “fold surface binding by relative mean fluorescence (RMF) compared to BA006H” value was about 20 fold.

B2: the “fold surface binding by relative mean fluorescence (RMF) compared to BA006H” value was about 20 fold.

With B3, the “fold surface binding by relative mean fluorescence (RMF) compared to BA006H” value was about 20 fold.

Take B4: the “fold surface binding by relative mean fluorescence (RMF) compared to BA006H” value was about 20 fold.

B5: the “fold surface binding by relative mean fluorescence (RMF) compared to BA006H” value was about 20 fold.

Turning to B6, the “fold surface binding by relative mean fluorescence (RMF) compared to BA006H” value is about 20 fold.
